A short description of this series: Stability of purified ArsR protein to freeze thaw. In kind it is physicochemical. The settings on record: post-dialysis, 0.48 mg/ml in 50 mM Hepes pH 8.5, 200 mM NaCl, 15 mM DTT, 5% glycerol. As to the method:
Dialysis was performed next. Glycerol was added to bring the pool to a concentration of 5% glycerol by volume. The pool was then diluted to approximately 1 mg/ml with the dialysis buffer listed below. The faction pool was dialyzed in 3500 Molecular Weight Cutoff tubing placed in 1 liter consisting of 50 mM Hepes, pH 8.5, 200 mM NaCl, 1 mM EDTA, 15 mM DTT, and 5% glycerol for five hours. The dialysis tubing was then placed in 4 liters of 50 mM Hepes, pH 8.5, 200 mM NaCl, 15 mM DTT, and 5% glycerol overnight to remove any EDTA. The pool was then clarified by centrifugation, the protein concentration was determined, and a SDS-PAGE was run of the results.
The final product of a pilot production (5 g whole cell pellet from 34 g total) yielded a protein concentration of 480 μg/ml (in a 0.05% polysorbate solution for stabilization of the protein and reduction of non-specific binding to the sensor surface). The total volume for this experiment was 3.6 ml, which yielded a total protein yield of 1.75 mg. This was dissolved in a buffer of 50 mM Hepes, pH 8.5, 200 mM NaCl, 15 mM DTT, and 5% Glycerol. Purity was greater than 95% by SDS PAGE. In this system, induction was tightly regulated and successful, with 30-40% of protein production in soluble fraction. The initial yield from IMAC for dialysis was 5 mg at 1.0 mg/ml., with visible precipitation post dialysis.

B1: ArsR: E. coli arsenic-binding, DNA-binding ars operon repressor protein, SEQ ID NO:2, expressed from codon-optimized synthetic gene (protein)
chain: MLQLTPLQLFKNLSDETRLGIVLLLREMGELCVCDLCMALDQSQPKISRHLAMLRESGILLDRKQGKWVHYRLSPHIPSWAAQIIEQAWLSQQDDVQVIARKLASVNCSGSSKAVCI
As to B1, the “stability to freeze thaw cycles” value is listed as “stable to multiple freeze thaw cycles”.
